Data published in publication PMC2701438.

Biological target: Full length LEF-1 (1-399) (human) (UniProt Q9UJU2)
UniProt Q9UJU2, sequence (Q9UJU2 whole entry): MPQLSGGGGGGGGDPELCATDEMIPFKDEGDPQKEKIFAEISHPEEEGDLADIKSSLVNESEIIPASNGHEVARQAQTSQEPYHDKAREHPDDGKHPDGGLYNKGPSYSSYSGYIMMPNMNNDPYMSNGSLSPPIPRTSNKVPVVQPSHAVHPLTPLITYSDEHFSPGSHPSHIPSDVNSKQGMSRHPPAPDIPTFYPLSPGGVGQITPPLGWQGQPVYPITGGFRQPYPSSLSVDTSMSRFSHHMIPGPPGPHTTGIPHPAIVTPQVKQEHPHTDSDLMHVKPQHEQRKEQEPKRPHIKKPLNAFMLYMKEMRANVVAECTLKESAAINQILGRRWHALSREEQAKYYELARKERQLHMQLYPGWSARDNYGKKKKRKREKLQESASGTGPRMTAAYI

Q: For “GST-Groucho (Drosophila), recovered as a 97 kDa protease-stable fusion protein (from UniProt P16371 1-730) (natural protein)”, which repression of LEF-1•β-catenin activated TOPFlash luciferase reporter in COS-1 cells, 250 and 500 ng Groucho expression vector is on record?
A: Its repression of LEF-1•β-catenin activated TOPFlash luciferase reporter in COS-1 cells, 250 and 500 ng Groucho expression vector is 3 fold.

Q: “human TLE-2 (from UniProt Q04725 1-743) (natural protein)” was tested. Which repression of LEF-1•β-catenin activated TOPFlash luciferase reporter in COS-1 cells did it give?
A: Its repression of LEF-1•β-catenin activated TOPFlash luciferase reporter in COS-1 cells is 3 fold.

B1: human Amino-enhancer-of-split (AES) (natural protein)
chain: MMFPQSRHSGSSHLPQQLKFTTSDSCDRIKDEFQLLQAQYHSLKLECDKLASEKSEMQRHYVMYYEMSYGLNIEMHKQAEIVKRLNGICAQVLPYLSQEHQQQVLGAIERAKQVTAPELNSIIRQQLQAHQLSQLQALALPLTPLPVGLQPPSLPAVSAGTGLLSLSALGSQAHLSKEDKNGHDGDTHQEDDGEKSD
Q: Which repression of LEF-1•β-catenin activated TOPFlash luciferase reporter in COS-1 cells, 250 and 500 ng AES expression vector does the source give for B1 here?
A: Its repression of LEF-1•β-catenin activated TOPFlash luciferase reporter in COS-1 cells, 250 and 500 ng AES expression vector is 3 fold.
